Data published in patent publication US20190144544A1 (Eli Lilly, published 2019).

Assays:
cell surface PD-L1 = cell surface PD-L1 (human, UniProt Q9NZQ7 19-290); assay: cell-based or functional assay
human PD-L1 monomer = target: T1, human PD-L1 monomer (human, UniProt Q9NZQ7 19-238, limits assumed); assay: SPR (Biacore T200) at 20, 25, 37 and 42 °C, Fab as analyte over immobilised human PD-L1 monomer; van't Hoff analysis of the association phase
T1 construct: Amine-coupled to the sensor chip; also called hPD-L1 monomer; hPD-L1
T1 sequence (Q9NZQ7 19-238 limits assumed): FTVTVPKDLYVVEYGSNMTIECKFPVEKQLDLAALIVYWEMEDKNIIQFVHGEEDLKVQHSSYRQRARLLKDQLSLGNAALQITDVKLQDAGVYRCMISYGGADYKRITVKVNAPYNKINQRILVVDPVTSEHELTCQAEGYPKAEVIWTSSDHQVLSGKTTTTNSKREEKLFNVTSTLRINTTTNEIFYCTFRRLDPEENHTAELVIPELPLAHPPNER
Method: The sample gradients are prepared in the running buffer HBS-EP (0.01M HEPES pH 7.4, 0.15M NaCl, 3 mM EDTA, 0.005% v/v surfactant P20). The binding experiments are repeated at four different temperatures: 20° C., 25° C., 37° C. and 42° C. Throughout the kinetics experiments, the flow rate is maintained at 30 μl/min and the association/contact time at 180 sec for all three Fabs. […] After dissociation, a 0.75 M NaCl, 25 mM NaOH solution regenerates the immobilized hPD-L1, and then the surface is stabilized for 30 sec with the running buffer. […] The binding kinetics are analyzed using the Biacore T200 Evaluation software (Version 3.0). Data is referenced to a blank flow cell, and the data is fitted to the 1:1 Langmuir binding model.
Steady-state, association, and dissociation are the three binding phases analyzed. MATLAB is utilized for the linear regression analysis.

cell surface PD-L1, sequence (Q9NZQ7 19-290 limits assumed): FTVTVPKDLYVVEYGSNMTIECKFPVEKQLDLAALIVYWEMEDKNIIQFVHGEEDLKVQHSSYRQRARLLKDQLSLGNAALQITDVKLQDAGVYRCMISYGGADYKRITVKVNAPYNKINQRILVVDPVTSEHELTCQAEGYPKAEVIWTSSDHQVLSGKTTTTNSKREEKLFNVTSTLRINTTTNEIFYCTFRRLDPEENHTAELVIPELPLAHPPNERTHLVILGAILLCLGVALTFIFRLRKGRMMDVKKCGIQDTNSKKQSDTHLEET

B1: Antibody A (antibody, human IgG1, lambda, V domains shown)
VH: QVQLVQSGAEVKKPGSSVKVSCKASGGTFSSYAISWVRQAPGQGLEWMGGIIPIFGTANYAQKFQGRVTITADKSTSTAYMELSSLRSEDTAVYYCARSPDYSPYYYYGMDVWGQGTTVTVSS
VL: QSVLTQPPSASGTPGQRVTISCSGSSSNIGSNTVNWYQQLPGTAPKLLIYGNSNRPSGVPDRFSGSKSGTSASLAISGLQSEDEADYYCQSYDSSLSGSVFGGGIKLTVLG
**Q.** B1 was tested. Which “IFN-γ secretion fold change vs. IgG control, mixed lymphocyte reaction, 0.01 nM antibody” value (cell surface PD-L1) did it give?
**A.** 1.25 fold

**Q.** What about the “IFN-γ secretion fold change vs. IgG control, mixed lymphocyte reaction, 0.05 nM antibody” value (cell surface PD-L1) of the same binder?
**A.** 1.95 fold

**Q.** What about the “IFN-γ secretion fold change vs. IgG control, mixed lymphocyte reaction, 0.27 nM antibody” value (cell surface PD-L1) of the same binder?
**A.** 2.68 fold

**Q.** And the “IFN-γ secretion fold change vs. IgG control, mixed lymphocyte reaction, 1.3 nM antibody” value (cell surface PD-L1)?
**A.** 4.13 fold

**Q.** And the “IFN-γ secretion fold change vs. IgG control, mixed lymphocyte reaction, 6.7 nM antibody” value (cell surface PD-L1)?
**A.** 4.11 fold

**Q.** And the “IFN-γ secretion fold change vs. IgG control, mixed lymphocyte reaction, 33.3 nM antibody” value (cell surface PD-L1)?
**A.** 5.71 fold

B2: Antibody A-Fab (Fab, V domains shown)
VH: QVQLVQSGAEVKKPGSSVKVSCKASGGTFSSYAISWVRQAPGQGLEWMGGIIPIFGTANYAQKFQGRVTITADKSTSTAYMELSSLRSEDTAVYYCARSPDYSPYYYYGMDVWGQGTTVTVSS
VL: QSVLTQPPSASGTPGQRVTISCSGSSSNIGSNTVNWYQQLPGTAPKLLIYGNSNRPSGVPDRFSGSKSGTSASLAISGLQSEDEADYYCQSYDSSLSGSVFGGGIKLTVLG
notes: CH1 and the lambda constant domain are not specified for the Fab; also called Fab of Antibody A
**Q.** For B2, which ΔSon (human PD-L1 monomer) is on record?
**A.** -26
